One assay deals with T1, NRP2/KDR(VEGFR2) (Homo sapiens, UniProt O60462).
T1 construct: The complete extracellular domain and transmembrane helices of NRP2a (version 2), NRP2b (version 5); expressed in transfected cells; host or cells: Expi293, transient co-transfection
T1 sequence (O60462 23-859 isoform O60462-3 limits assumed): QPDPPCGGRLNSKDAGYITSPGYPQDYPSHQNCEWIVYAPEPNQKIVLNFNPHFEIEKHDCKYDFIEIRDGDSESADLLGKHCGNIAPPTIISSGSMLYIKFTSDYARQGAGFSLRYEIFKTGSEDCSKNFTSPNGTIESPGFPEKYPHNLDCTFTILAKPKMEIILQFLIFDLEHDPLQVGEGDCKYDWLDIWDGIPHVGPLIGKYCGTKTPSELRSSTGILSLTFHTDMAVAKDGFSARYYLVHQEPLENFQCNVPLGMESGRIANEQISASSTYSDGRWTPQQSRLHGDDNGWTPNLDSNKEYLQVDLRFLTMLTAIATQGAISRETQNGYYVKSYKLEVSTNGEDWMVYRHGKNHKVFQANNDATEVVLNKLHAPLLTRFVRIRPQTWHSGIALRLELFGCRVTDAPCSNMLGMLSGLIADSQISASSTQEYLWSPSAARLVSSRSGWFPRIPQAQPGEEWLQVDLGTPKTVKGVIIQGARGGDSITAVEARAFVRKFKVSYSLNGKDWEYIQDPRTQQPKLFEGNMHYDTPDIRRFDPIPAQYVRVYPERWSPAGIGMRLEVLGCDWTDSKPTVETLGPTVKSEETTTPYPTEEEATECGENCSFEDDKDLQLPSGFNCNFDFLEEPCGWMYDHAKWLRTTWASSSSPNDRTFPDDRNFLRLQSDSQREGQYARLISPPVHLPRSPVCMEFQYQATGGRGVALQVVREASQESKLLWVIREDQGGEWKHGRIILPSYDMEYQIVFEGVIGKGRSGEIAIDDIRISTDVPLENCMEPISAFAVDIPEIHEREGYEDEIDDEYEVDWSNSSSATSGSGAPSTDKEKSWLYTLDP
In words: Split-luciferase receptor dimerization assay, NRP2/KDR with VEGF-A. The assay is classed as cell-based. To be noted: antibody 100 nM; ligand induced dimerization. The method, then: To further extend the assessment of the biological activity of the anti-NRP2 antibodies, their activity was assessed in a receptor dimerization assay. In brief, vectors encoding a split luciferase pBiT1.1 and pBiT2.1 were obtained from Promega corporation (Madison, Wisconsin). The complete extracellular domain and transmembrane helices of NRP2a (version 2), NRP2b (version 5) (See table N1), FLT4 (VEGFR3), KDR (VEGFR2), and plexin A1 (PLXNA1) were cloned into the vectors and screened for optimal orientation, receptor density, and ligand induced dimerization, following established methods. […] Cells were counted, and 100,000 live cells were plated in a well of a white luminometer plate in Live Cell Imaging Solution (Fisher). Nano-Glo assay substrate (Promega) was added, and the plate was read on a Glomax 96 luminometer at room temperature to establish baseline luminescence. Antibodies were added to the well at 100 nM and the plate was again read to establish a new baseline and monitor the effects of the antibodies on spontaneous receptor dimerization. Depending on the receptor pair, typically 200 nM SEMA3F-p95 (aTyr Pharma), 2 nM VEGF-C(R&D Systems, Minnesota), or 2 nM VEGF165 (R&D Systems, Minnesota) were then added and the plate was again read to measure dimerization of receptors. […]

The test system of the next assay is MDA-MB-231 cells. In words: 3D methylcellulose colony formation assay, MDA-MB-231. The conditions noted are these: antibody 100 nM in combination with Cisplatin (2 doses) or Bevacizumab (100 nM), compared to hIgG4. The assay is classed as cell-based, human. The text has this:
Other experimental details are essentially the same as described in the previous example.

For the next assay, the system named is MDA-MB-231. In words: 3D soft agar colony formation assay, MDA-MB-231. The assay is classed as cell-based, human. The protocol: Anchorage-independent growth is the ability of transformed cells to grow independently of a solid surface, and is a hallmark of carcinogenesis. The soft agar colony formation assay is a well-established method for characterizing this capability in vitro (J Vis Exp. 2014; (92): 51998). Human triple negative breast cancer (TNBC) cell lines MDA-MB-231 (HTB-26™) and BT549 (HTB122™) were obtained from ATCC and employed in this assay.
MDA-MB-231 was cultured in 1×RPMI media containing 10% FBS and 1% P/S. BT549 was cultured in 1×RPMI media containing 10% FBS, 0.023 U/mL insulin and 1% P/S. Cells were recovered and expanded from frozen stocks for 2-3 passages. The NRP2-high population was sorted out on FACS equipment following cell surface staining by a fluorophore-conjugated anti-NRP2 antibody. […] The chemo drug Cisplatin or 5-FU was added at a final concentration of IC30 or 1/2 IC30, based on a preliminary test that determined their inhibition curves on MDA-MB-231 cells, in combination with the antibodies a-NRP2-10v10 or its isotype control hIgG4 at 100 nM. […] After 6 or 9 days of treatment, the soft agar matrix was dissolved and the formed cell colonies were quantified using CyQuant dye diluted in PBS (provided in the Cell Biolab kit), which produced a fluorescence signal proportional to viable cells.

“Also recorded” adds a separate entry of the source.

B1: aNRP2-11v7: humanized, affinity matured anti-NRP2 antibody, target domain b2; VH SEQ ID NO: 51, VL SEQ ID NO: 52 (antibody, V domains shown)
VH: QVQLVQSGAEVKKPGASVKVSCKASGYTFTSFGISWVRQAPGQGLEWIGEIYPRSGNTYYNENFKGRATMTADKSTSTAYMELRSLRSDDTAVYYCARSSGYYGSTPFPYWGQGTLVTVSS
VL: DIQMTQSPSSLSASVGDRVTITCRASQDISNYLNWYQQKPGKAVKLLIYYTSRLHSGVPSRFSGSGSGTDYTFTISSLQPEDIATYYCQQGNTLPWTFGGGTKVEIK
modifications: Variable heavy chain region; Light chain variable region
Take B1: the “effect on NRP2-KDR dimerization (in words)” value with NRP2/KDR(VEGFR2) was “increased the ligand induced dimerization signal”.

B2: aNRP2-10v10: humanized, affinity matured anti-NRP2 antibody, target domain b1, VEGF-C blocking; VH SEQ ID NO: 49, VL SEQ ID NO: 50 (antibody, V domains shown)
VH: EVQLVQSGAEVKKPGATVKISCKVSGFNIKDYYVHWVQQAPGKGLEWMGRIDVEDDETKYAPKFQGRVTITADTSTDTAYMELSSLRSEDTAVYYCATPIYGAREAWFAYWGQGTLVTVSS
VL: DIQMTQSPSSLSASVGDRVTITCTASSSVSSSYLHWYQQKPGKAPKLLIYRTSNLASGVPSRFSGSGSGTDFTLTISSLQPEDFATYYCHQYYRSPPTFGGGTKVEIK
modifications: Variable heavy chain region; Light chain variable region
With B2, the “colony formation by MDA-MB-231 cells, methylcellulose” value with MDA-MB-231 cells is reported as “inhibitory effect; also recorded: significantly enhanced inhibition of colony formation”. In addition, the “colony formation, soft agar, antibody treatment alone (MDA-MB-231)” value with MDA-MB-231 (aNRP2-10v10 treatment alone) is “no obvious effect”. Besides, the “colony formation by MDA-MB-231 cells, soft agar” value in the assay with MDA-MB-231 (antibody 100 nM in combination with Cisplatin or 5-FU (IC30 or 1/2 IC30), compared to hIgG4 control, NRP2-high sorted cells) is “significantly more pronounced; also recorded: significant inhibition of colony formation”.
